This is an account of results in patent publication US20230330254A1 (Regeneron, published 2023).

By EC50 is commonly meant the concentration needed to bring the measured effect to its halfway point. High values mean a less potent agent, low ones a more potent agent. What is called Kd is the free concentration of one partner at which half of the binding sites on the other are occupied at equilibrium, for simple one-to-one binding. The term koff denotes the first-order rate constant of dissociation. Broadly, the kon is a measure of how fast the partners come together.

Where two headings read alike, the source gives them in different places.

The target in experiment [1] is T1, full-length human GLP1R on HEK293/CRE-Luc/hGLP1R cells (human, UniProt P43220 24-463). The experiment is described as follows: cell-based or functional assay.
For experiment [2], the target named is Myc-tagged full length human GLP1R on HEK293/Myc-hGLP1R/Cre-Luc cells (human, UniProt P43220 24-463). The experiment is described as follows: cell-based or functional assay.
Experiment [3] deals with T1, full-length human GLP1R on …. The experiment is described as follows: cell-based or functional assay. The source holds these as a separate data set.
For experiment [4] the target is unchanged. The experiment is described as follows: cell-based or functional assay. This is another data set of the same source.
Experiment [5] shares this target. The experiment is described as follows: cell-based or functional assay. The source holds these as a separate data set.
The target in experiment [6] is T2, full-length cynomolgus GLP1R on HEK293/CRE-Luc/mfGLP1R cells (cynomolgus, UniProt F8V479 24-463). The experiment is described as follows: cell-based or functional assay.
Experiment [7] has as its target T3, full-length human glucagon-like peptide 2 receptor on HEK293/CRE-Luc/hGLP2R cells (human, UniProt O95838 1-553).
T3 sequence (looked up): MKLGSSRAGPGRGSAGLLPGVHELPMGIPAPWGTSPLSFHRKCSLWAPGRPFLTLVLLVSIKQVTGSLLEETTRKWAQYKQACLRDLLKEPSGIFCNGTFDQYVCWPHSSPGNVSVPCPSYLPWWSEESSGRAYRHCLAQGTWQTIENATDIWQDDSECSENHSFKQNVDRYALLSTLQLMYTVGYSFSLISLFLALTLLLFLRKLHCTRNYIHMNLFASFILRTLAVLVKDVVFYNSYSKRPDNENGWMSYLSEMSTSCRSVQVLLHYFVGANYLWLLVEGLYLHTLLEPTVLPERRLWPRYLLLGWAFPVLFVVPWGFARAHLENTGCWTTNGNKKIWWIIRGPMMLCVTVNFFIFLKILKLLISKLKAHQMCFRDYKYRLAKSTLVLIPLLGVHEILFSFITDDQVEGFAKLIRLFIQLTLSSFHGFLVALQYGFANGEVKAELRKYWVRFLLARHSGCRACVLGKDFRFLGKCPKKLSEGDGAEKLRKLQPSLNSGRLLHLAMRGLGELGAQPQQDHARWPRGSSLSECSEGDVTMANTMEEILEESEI
The experiment is described as follows: cell-based or functional assay.

For experiment [8], the target named is T4, full-length human glucagon receptor on HEK293/CRE-Luc/hGCGR cells (human, UniProt P47871 26-477). The experiment is described as follows: cell-based or functional assay.
T4 sequence (P47871 26-477): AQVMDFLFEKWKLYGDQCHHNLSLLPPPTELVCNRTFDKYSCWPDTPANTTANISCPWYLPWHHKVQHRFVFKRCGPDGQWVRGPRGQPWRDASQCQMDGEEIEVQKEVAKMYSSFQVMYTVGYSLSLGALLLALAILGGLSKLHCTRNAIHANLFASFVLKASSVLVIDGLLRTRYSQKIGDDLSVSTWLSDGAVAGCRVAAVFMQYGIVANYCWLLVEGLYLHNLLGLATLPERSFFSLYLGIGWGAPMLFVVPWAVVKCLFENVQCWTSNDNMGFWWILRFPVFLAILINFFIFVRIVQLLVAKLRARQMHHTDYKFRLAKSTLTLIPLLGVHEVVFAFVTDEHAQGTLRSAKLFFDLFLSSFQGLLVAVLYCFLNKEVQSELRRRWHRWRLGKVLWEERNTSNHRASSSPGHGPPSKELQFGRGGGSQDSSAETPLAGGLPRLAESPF
Experiment [9] deals with T5, full-length human gastric inhibitory polypeptide receptor on HEK293/CRE-Luc/hGIPR cells (human, UniProt P48546 22-466).
T5 sequence (looked up): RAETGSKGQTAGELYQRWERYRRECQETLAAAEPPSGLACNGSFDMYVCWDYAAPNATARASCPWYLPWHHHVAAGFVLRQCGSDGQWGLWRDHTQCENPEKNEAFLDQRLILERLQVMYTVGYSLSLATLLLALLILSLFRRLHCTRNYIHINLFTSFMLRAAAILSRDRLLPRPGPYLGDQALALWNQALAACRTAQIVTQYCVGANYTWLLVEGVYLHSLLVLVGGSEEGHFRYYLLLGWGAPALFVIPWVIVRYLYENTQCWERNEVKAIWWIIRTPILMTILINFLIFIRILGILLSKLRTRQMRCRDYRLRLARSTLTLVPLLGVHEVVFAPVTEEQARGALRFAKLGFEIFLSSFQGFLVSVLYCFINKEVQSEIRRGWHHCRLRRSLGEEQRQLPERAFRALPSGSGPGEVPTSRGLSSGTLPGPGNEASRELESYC
The experiment is described as follows: cell-based or functional assay.

Experiment [10] has as its target T1, full-length human GLP1R on …. The experiment is described as follows: cell-based or functional assay. The source holds these as a separate data set.
For experiment [11], the target named is T2, full-length cynomolgus GLP1R on …. The experiment is described as follows: cell-based or functional assay. This is another data set of the same source.
The target in experiment [12] is T3, full-length human glucagon-like peptide …. The experiment is described as follows: cell-based or functional assay. The source holds these as a separate data set.
Experiment [13] has as its target T4, full-length human glucagon receptor on …. The experiment is described as follows: cell-based or functional assay. The source holds these as a separate data set.
The target of experiment [14] is T5, full-length human gastric inhibitory …. The experiment is described as follows: cell-based or functional assay. The source holds these as a separate data set.
Experiment [15] has as its target human GLP1R on PathHunter eXpress GLP1R CHO-K1 b-Arrestin GPCR cells (human, UniProt P43220 24-463). The experiment is described as follows: cell-based or functional assay.
For experiment [16], the target named is T1, full-length human GLP1R on …. The experiment is described as follows: cell-based or functional assay. This is another data set of the same source.
For experiment [17] the target is unchanged. The experiment is described as follows: flow cytometry, hGLP1R cells. A general note: Flow cytometry measures light scatter and fluorescence of single cells or particles in a stream.
The target in experiment [18] is T6, full-length mouse GLP1R on HEK293/CRE-Luc/mGLP1R cells (mouse, UniProt O35659 22-463).
T6 construct: whole, on cells
T6 sequence (looked up): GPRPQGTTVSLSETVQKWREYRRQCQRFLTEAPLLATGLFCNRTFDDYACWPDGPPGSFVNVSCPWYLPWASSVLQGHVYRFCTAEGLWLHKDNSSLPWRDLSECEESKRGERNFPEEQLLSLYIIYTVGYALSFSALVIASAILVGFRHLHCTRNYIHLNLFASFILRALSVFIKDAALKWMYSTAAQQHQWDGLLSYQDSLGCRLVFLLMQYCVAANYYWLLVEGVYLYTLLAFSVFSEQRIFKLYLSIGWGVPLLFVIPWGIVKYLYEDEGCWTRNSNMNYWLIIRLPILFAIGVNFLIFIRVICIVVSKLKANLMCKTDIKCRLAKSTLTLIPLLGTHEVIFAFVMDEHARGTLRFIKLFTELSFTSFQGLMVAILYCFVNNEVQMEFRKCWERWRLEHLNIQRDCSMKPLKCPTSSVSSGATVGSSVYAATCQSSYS
The experiment is described as follows: flow cytometry, mGLP1R cells.

Experiment [19] concerns the target T2, full-length cynomolgus GLP1R on …. The experiment is described as follows: flow cytometry, mfGLP1R cells.
Experiment [20] addresses T1, full-length human GLP1R on …. The experiment is described as follows: flow cytometry, hGLP1R cells. The source holds these as a separate data set.
The target of experiment [21] is T2, full-length cynomolgus GLP1R on …. The experiment is described as follows: flow cytometry, mfGLP1R cells. The source holds these as a separate data set.
The target of experiment [22] is T7, N-terminal ectodomain of human GLP1R expressed with a myc-myc hexahistidine tag (human, UniProt P43220 24-145, limits assumed).
T7 construct: extracellular domain; also called hGLP1R-MMH; hGLP1R.mmh
T7 sequence (P43220 24-145 limits assumed): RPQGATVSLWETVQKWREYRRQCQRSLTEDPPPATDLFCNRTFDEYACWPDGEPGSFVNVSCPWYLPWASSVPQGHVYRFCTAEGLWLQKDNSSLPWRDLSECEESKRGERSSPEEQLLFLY
The experiment is described as follows: SPR, captured via anti-hFc, 25 C. (SPR reads the build-up and loss of mass on a sensor chip optically.)

B1: GLP1R agonist linker-payload LP11 (NH2-PEG8-triazole-P8) (peptide)
peptide: XXGTXTSDXX
modifications: CapAib-E*-G-T-F*-T-S-D-AA2-AA1: CapAib = 3-((2-(1H-imidazol-5-yl)ethyl)amino)-2,2-dimethyl-3-oxopropanoic acid; E* = (S)-2-amino-3-(2H-tetrazol-5-yl)propanoic acid; F* = (S)-2-amino-3-(2-fluorophenyl)-2-methylpropanoic acid; AA2 = biphenylalanine derivative carrying the amino-PEG8-triazole linker; AA1 = (S)-2-amino-5-(3,5-dimethylphenyl)pentanamide
With B1, in [1], the “cAMP EC50” value was found to be 0.318 nM. For the same molecule, the “CRE-luc EC50” value in experiment [2] was 0.016 nM; in experiment [4] it was 0.0369 nM; in experiment [5], 0.0258 nM; in experiment [6], 0.0463 nM; in [7] it was more than 200 nM; in experiment [8], more than 200 nM. Further, the “CRE-luc EC50” value was more than 200 nM in experiment [9]; 0.0601 nM in experiment [10]; 0.202 nM in experiment [11]; more than 30 nM in [12]; more than 30 nM in [13]; more than 30 nM in experiment [14]. Also, the “CRE-luc EC50” value in experiment [16] was found to be 0.0168 nM. Also, the “CRE-luc EC50 (experiment A)” value in [3] was found to be 0.0161 nM. Moreover, the “CRE-luc Relative Potency (% P8 EC50) (experiment A)” value in [3] worked out at 33.1%. Moreover, the “CRE-luc S/N (experiment A)” value in experiment [3] came out at 74.5 fold. For the same molecule, the “CRE-luc Relative Potency (% M2361 EC50)” value in experiment [4] turned out to be 44%. The “CRE-luc Relative Signal:Noise (% M2361)” value in experiment [4] came to 96.4%. The “CRE-luc S/N” value in [4] came out at 62 fold. The “b-arrestin 2 recruitment EC50” value in [15] amounted to 2.48 nM. Also, in [15], the “b-arrestin 2 recruitment Emax (% GLP-1)” value was found to be 108%. Moreover, in experiment [16], the “CRE-luc Emax (% GLP-1)” value is 93.9%.

B2: REGN15869 (antibody, human IgG4 S228P, kappa, V domains shown)
VH: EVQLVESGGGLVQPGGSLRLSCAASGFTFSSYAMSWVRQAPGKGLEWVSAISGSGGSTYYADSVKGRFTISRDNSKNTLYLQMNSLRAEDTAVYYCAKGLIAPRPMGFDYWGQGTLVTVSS
VL: DIQMTQSPSSVSASVGDRVTITCRASQGINSWLAWYQQKPGKAPKLLIYAASSLESGVPSRFSGSGSGTDFTLTISSLQPEDFATYYCHQADSFPYTFGQGTKLEIKR
notes: IgG4; Q-tag on light chain N-terminus; also called REGN15869 unconjugated Ab
B2: the “CRE-luc EC50” value is more than 30 nM in [10]; more than 30 nM in [11]; more than 30 nM in experiment [12]; more than 30 nM in [13]; more than 30 nM in experiment [14]; more than 1000 nM in [16]. Moreover, the “b-arrestin 2 recruitment EC50” value in experiment [15] is more than 1000 nM. Moreover, the “b-arrestin 2 recruitment Emax (% GLP-1)” value in experiment [15] is 4.3%. Also, the “CRE-luc Emax (% GLP-1)” value in [16] is 0.5%. For the same molecule, the EC50 is 9.56 nM in experiment [17], 43.1 nM in experiment [18] and 8.96 nM in [19]. In addition, the “Flow S/N” value in experiment [17] worked out at 106 fold; in experiment [18] it was 53.3 fold; in experiment [19], 132 fold.

B3: REGN7990-M3190 (antibody, human IgG4 S228P, kappa, V domains shown)
VH: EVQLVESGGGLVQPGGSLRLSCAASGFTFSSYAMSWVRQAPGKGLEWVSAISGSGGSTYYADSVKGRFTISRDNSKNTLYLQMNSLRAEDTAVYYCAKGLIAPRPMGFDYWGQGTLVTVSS
VL: DIQMTQSPSSVSASVGDRVTITCRASQGINSWLAWYQQKPGKAPKLLIYAASSLQSGVPSRFSGSGSGTDFTLTISSLQPEDFATYYCHQADSFPYTFGQGTKLEIKR
modifications: linker-payload M3190 (LP11) on Gln 3 of the N-terminal Q-tag LLQGSG
notes: antibody-tethered drug conjugate; also called REGN7990 ATDC; anti-GLP1R mAb3-LP11
In the case of B3, the “CRE-luc EC50” value in [4] was 0.0601 nM; in [5] it was 0.0724 nM; in experiment [6], 0.0772 nM; in experiment [7], more than 200 nM; in experiment [8], more than 200 nM; in [9], more than 200 nM. The “CRE-luc EC50” value in [10] was 0.0637 nM; in experiment [11], 0.257 nM; in [12] it was more than 30 nM; in experiment [13], more than 30 nM; in experiment [14], more than 30 nM; in experiment [16] it was 0.236 nM. In experiment [4], the “CRE-luc Relative Potency (% M2361 EC50)” value was found to be 27%. Also, the “CRE-luc Relative Signal:Noise (% M2361)” value in experiment [4] turned out to be 135%. Further, the “CRE-luc S/N” value in experiment [4] is 86.9 fold. The “b-arrestin 2 recruitment EC50” value in experiment [15] came out at 17.2 nM. Further, in experiment [15], the “b-arrestin 2 recruitment Emax (% GLP-1)” value turned out to be 103%. The “CRE-luc Emax (% GLP-1)” value in experiment [16] is 90.9%. Further, the EC50 is 9.81 nM in experiment [20]; 30.5 nM in [17]; 91.5 nM in experiment [18]; 4.79 nM in experiment [21]; 29.9 nM in experiment [19]. Besides, the “Flow S/N” value was determined as 117 fold in experiment [20]; 231 fold in [17]; 29.3 fold in experiment [18]; 103 fold in experiment [21]; 486 fold in experiment [19]. Moreover, in experiment [22], the “90 nM hGLP1R.mmh Bound (RU)” value worked out at 22.8 RU. Binding in experiment [22] was characterised by a dissociation constant (Kd) of 2.01 nM. The same molecule returned a koff in experiment [22] of 0.000785 s⁻¹. In experiment [22], this molecule returned a kon of 390000 M⁻¹ s⁻¹. Further, in experiment [22], the t1/2 is 14.7 min.
